Test results: patent US8445444B2, “Compositions and methods for diagnosing, treating, and preventing prostate conditions” (Phigenix, Inc., priority 2007, dated 2013)
Entries after “also recorded” stand apart in the source; their conditions may differ.

Key:
Type in all cases: cell-based, human
[1] = tested on: LNCaP; assay: MTT cell viability assay; details: DEFB1 (hBD-1) induction 24-72 h
Experimental: (§1) MTT Cell Viability Assay: To examine the effects of DEFB1 on cell growth, metabolic 3-[4,5-dimethylthiazol-2-yl]-2,5 diphenyl tetrazolium bromide (MTT) assays were performed. PC3, DU145 and LNCaP cells co-transfected with pVgRXR plasmid and pIND/DEFB1 construct or empty pIND vector were seeded onto a 96-well plate at 1-5×10^3 cells per well. Twenty-four hours after seeding, fresh growth medium was added containing 10 μM Ponasterone A daily to induce DEFB1 expression for 24-, 48- and 72 hours after which the MTT assay was performed according to the manufacturer's instructions (Promega). Reactions were performed three times in triplicate.
(§2) MTT Cytotoxicity Assay: DU145, PC3 and LNCaP cells (1×105) were transfected with 0.5 μg of the PAX2 siRNA pool or control siRNA pool using Codebreaker transfection reagent according to the manufacturer's protocol (Promega). Next, cell suspensions were diluted and seeded onto a 96-well plate at 1-5×10^3 cells per well and allowed to grow for 2-, 4- or 6 days. After culture, cell viability was determined by measuring the conversion of 3-[4,5-dimethylthiazol-2-yl]-2,5 diphenyl tetrazolium bromide, MTT (Promega), to a colored formazan product. Absorbance was read at 540 nm on a scanning multiwell spectrophotometer.
(§3) MTT cell viability assay: To examine the effects of hBD-1 on cell growth, metabolic 3-[4,5-dimethylthiazol-2-yl]-2,5-diphenyl tetrazolium bromide (MTT) assay was performed. DU145, LNCaP, PC3 and PC3/AR+ cells co-transfected with pvgRXR plasmid and pIND/hBD-1 construct or control pvgRXR plasmid were seeded onto a 96-well plate at 1-5×10^3 cells per well. Twenty-four hours after seeding, fresh growth medium was added containing 10 μM Pon A daily to induce hBD-1 expression for 24, 48 and 72 h after which the MTT assay was performed according to the manufacturer's instructions (Promega). Reactions were performed three times in triplicate.
(§4) MTT cytotoxicity assay: DU145, PC3 and LNCaP cell suspensions were diluted and seeded onto a 96-well plate at 1-5×10^3 cells per well. Next the cells were transfected, according to the manufacturer's protocol (Promega), with 5 pg/cell of the PAX2 siRNA pool, control siRNA pool, or the Codebreaker transfection reagent alone. All cells were allowed to grow for 2-, 4- or 6 days after treatment. Cell viability was then determined by measuring the conversion of 3-[4,5-dimethylthiazol-2-yl]-2,5 diphenyl tetrazolium bromide, MTT (Promega) to a colored formazan product. Absorbance was read at 540 nm on a scanning multi-well spectrophotometer.

[2] = tested on: DU145; assay: MTT cell viability assay
Experimental: as §1, §2, §3, §4

[3] = tested on: PC3; assay: MTT cell viability assay
Experimental: as §1, §2, §3, §4

[4] = tested on: DU145; assay: Pan-caspase detection (FAM-VAD-FMK, confocal); details: DU145, 24 h DEFB1 (hBD-1) induction
Experimental: Detection of caspase activity in the prostate cancer cell lines was performed using APO LOGIX™ Carboxyfluorescin Caspase detection kit (Cell Technology, Mountain View, Calif.). Active caspases were detected through the use of a FAM-VAD-FMK inhibitor that irreversibly binds to active caspases. Briefly, DU 145 and PC3 cells (1.5-3×10^5) containing the DEFB1 expression system were plated in 35 mm glass bottom microwell dishes (Matek, Ashland, Mass.) and treated for 24 hours with media only or with media containing PonA as previously described. Next, 10 μl of a 30× working dilution of carboxyfluorescein labeled peptide fluoromethyl ketone (FAM-VAD-FMK) was added to 300 μl of media and added to each 35 mm dish. Cells were then incubated for 1 hour at 37° C. under 5% CO2. […] The fluorescent signal was analyzed using a confocal microscope (Zeiss LSM 5 Pascal) and a 63×DIC oil lens with a Vario 2 RGB Laser Scanning Module.
Pan-Caspase Detection: Detection of caspase activity in the prostate cancer cell lines was performed using APO LOGIX™ Carboxyfluorescin Caspase detection kit (Cell Technology, Mountain View, Calif.). Active caspases were detected through the use of a FAM-VAD-FMK inhibitor that irreversibly binds to active caspases. […] The fluorescent signal was analyzed using a confocal microscope (Zeiss LSM 5 Pascal) and a 63×DIC oil lens with a Vario 2 RGB Laser Scanning Module. […]

## DEFB1: human beta defensin-1 expressed from the ecdysone inducible pIND/DEFB1 construct, induced with Ponasterone A (DHYNCVSSGGQCLYSACPIFTKIQGTCYRGKAKCCK; UniProt P60022 33-68, looked up)
[1]
  effect on cell viability: no significant effect
[2]; DU145, 24 h DEFB1 (hBD-1) induction, 10 μM Ponasterone A
  relative cell viability: 72%
[2]; DU145, 48 h DEFB1 (hBD-1) induction
  relative cell viability: 49%
[2]; DU145, 72 h DEFB1 (hBD-1) induction
  relative cell viability: 44%
[3]; PC3, 24 h DEFB1 (hBD-1) induction
  relative cell viability: 56%
[3]; PC3, 48 h DEFB1 (hBD-1) induction
  relative cell viability: 37%
[3]; PC3, 72 h DEFB1 (hBD-1) induction
  relative cell viability: 29%
[4]
  caspase activity: revealed caspase activity; also recorded: green staining
[4]; listed as hBD-1
  caspase activity: green staining
